± gives the uncertainty stated by the source.
Assay: protein stability index of a GFP-peptide fusion (yeast GPS) (PSI 1-4); higher = more stable; sorted into four equal gates, so the index is relative within each strain
Method in brief: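 Mid-log yeast cultures in leucine-free medium, carrying a pooled plasmid library, were sorted into four equal gates by their GFP/Cherry fluorescence ratio. Each plasmid expressed Cherry along with GFP fused upstream of a tiled 17-residue yeast protein peptide. Plasmids recovered from each gate were PCR-amplified and Illumina-sequenced, with reads assigned to strains by barcodes. The protein stability index was obtained by summing each gate's read frequency weighted by its gate number.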

| Sequence | protein stability index (doa10∆) | protein stability index (pdr5∆) | protein stability index (san1∆) | protein stability index (ubr1∆) |
| --- | --- | --- | --- | --- |
| LFPVAAQDSLTVTIASS [RPB8] | 1.22 ± 0.053 | 1.48 ± 0.049 | 1.32 ± 0.16 | 1.61 ± 0.041 |
| SVLDEQEQYQTNTFEGS [SNU114] | 3.12 ± 0.14 | 3.22 ± 0.08 | 3.26 ± 0.11 | 3.31 ± 0.071 |
| DNSATSYYELETIIFDS [RRI1] | 3.19 ± 0.076 | 3.17 ± 0.055 | 3.11 ± 0.042 | 3.06 ± 0.041 |
| EREEAEKKRAEQENMRK [MED2] | – | – | 2.75 ± 0.28 | – |
| LDPLARVSKDKKSGSLT [FAS2] | 3.31 ± 0.1 | 3.2 ± 0.096 | 3.22 ± 0.084 | 3.14 ± 0.16 |
| TPGLTFNAIDLARHLPA [RPC82] | 2.71 ± 0.069 | 2.73 ± 0.061 | 2.77 ± 0.056 | 3.21 ± 0.075 |
| CSRCGSVTRAGNIISSD [SIN4] | – | 3.33 ± 0.26 | – | 3.03 ± 0.22 |
| SQVDPITLFVLVSVVEA [FAS2] | 1.44 ± 0.045 | 2.03 ± 0.069 | 2.48 ± 0.077 | 1.45 ± 0.072 |
| AGERKIPHDLNFLQESY [TAF14] | 2.83 ± 0.086 | 3 ± 0.079 | 2.71 ± 0.064 | 2.62 ± 0.071 |
| DRDESSPYAAMLAAQDV [RPS14A] | 3.02 ± 0.088 | 3.21 ± 0.072 | 2.55 ± 0.09 | 3.27 ± 0.078 |
| MALKFVSIKFTNAAFPF [ECM29] | 2.09 ± 0.058 | 1.98 ± 0.058 | 1.76 ± 0.078 | 1.82 ± 0.071 |
| LFGQSQQPQTNTAPGLG [YGR119C/NUP57] | 2.68 ± 0.2 | 2.88 ± 0.27 | 3.14 ± 0.16 | 2.97 ± 0.092 |
| LEDYVPHQSPDATRVFV [RPB2] | 2.82 ± 0.055 | 2.87 ± 0.055 | 2.97 ± 0.04 | 3.07 ± 0.04 |
| DGTEYVLSSVREPDFWV [MED6] | 3.49 ± 0.13 | – | – | 2.67 ± 0.12 |
| CTKLAVYYSKRGFKVGL [SRP54] | 2.57 ± 0.14 | 2.73 ± 0.13 | 2.23 ± 0.099 | 2.54 ± 0.06 |
| SLQYINIRGNTIRQIIL [SMD1] | 3.15 ± 0.097 | 3.26 ± 0.085 | 2.73 ± 0.1 | 2.94 ± 0.065 |
| DSKNTPNVFDKDSYVRI [YDL088C/ASM4] | 3.01 ± 0.12 | 3.11 ± 0.048 | 3.06 ± 0.072 | 3.25 ± 0.051 |
| TNSPQISVTRQVVLGGT [SMC2] | 2.82 ± 0.078 | 3 ± 0.075 | 3.03 ± 0.064 | 2.67 ± 0.048 |
| QQSTDADEDDEDAKYVI [RPT1] | – | 3.56 ± 0.27 | – | 3.8 ± 0.14 |
| MVNESDGVTHALYPQEA [RPB2] | 3.16 ± 0.087 | 3.26 ± 0.081 | 3.05 ± 0.067 | 3.35 ± 0.086 |
| DSNGDFNEDQLFSLLEL [RRP46] | 2.83 ± 0.16 | 2.82 ± 0.16 | 3.31 ± 0.069 | 2.98 ± 0.1 |
| NGFHGRLGDLGVIDDSF [SMC4] | 3.51 ± 0.17 | 3.35 ± 0.11 | 3.11 ± 0.12 | 3.46 ± 0.057 |
| PPTTSNLIIFLYKFNGW [YML103C/NUP188] | 1.76 ± 0.046 | 2.26 ± 0.045 | 2.32 ± 0.058 | 2.53 ± 0.051 |
| LTNQQPKNLSTPSTSSN [CSE2] | 2.94 ± 0.067 | 2.84 ± 0.068 | 2.67 ± 0.066 | 2.79 ± 0.059 |
| GTNKDMILKLVCQVTKF [ECM29] | 1.55 ± 0.058 | 1.26 ± 0.037 | 1.28 ± 0.13 | 1.59 ± 0.077 |
| MAKKEGTPKTDSFIFDG [MED4] | 3.43 ± 0.13 | 3.22 ± 0.15 | 2.94 ± 0.17 | 3.28 ± 0.092 |
| EFVDDYTVNVVDVFAMP [RPN11] | 3.08 ± 0.19 | 3.01 ± 0.17 | 2.91 ± 0.12 | 3.13 ± 0.13 |
| LDYQETYVEELFPIVKK [YJL039C/NUP192] | 2.81 ± 0.071 | 3.07 ± 0.1 | 2.87 ± 0.1 | 2.75 ± 0.062 |

| Sequence | protein stability index (doa10∆) | protein stability index (pdr5∆) | protein stability index (san1∆) | protein stability index (ubr1∆) |
| --- | --- | --- | --- | --- |
| SGAITFVNETPRVIEPV [PRP8] | – | 1.96 ± 0.27 | – | 1.11 ± 0.045 |
| DLAVCATIIGIISTAIA [ECM29] | 1.95 ± 0.052 | 2.07 ± 0.043 | 1.99 ± 0.054 | 1.95 ± 0.029 |
| IMGFISYHNGNLKGRPY [FAS2] | 3 ± 0.13 | 2.95 ± 0.11 | 3.28 ± 0.057 | 3.01 ± 0.12 |
| SSSKSMINDENYIINDI [SRB8] | 2.92 ± 0.064 | 2.82 ± 0.052 | 2.63 ± 0.074 | 2.83 ± 0.04 |
| KPLFDFGKTGDQKETKK [YOR098C/NUP1] | 3.3 ± 0.12 | 3.6 ± 0.19 | 2.79 ± 0.22 | 3.34 ± 0.082 |
| WTSTQRHHWQYTKASLA [SSN8] | 1.26 ± 0.093 | 1.38 ± 0.095 | 1.42 ± 0.16 | 1.46 ± 0.073 |
| NPSEFTPNMVNSEISNL [SSN2] | 2.66 ± 0.08 | 2.5 ± 0.1 | 2.58 ± 0.08 | 2.91 ± 0.062 |
| NLNELESQLQMDRTSLR [SMC3] | 2.57 ± 0.15 | 2.59 ± 0.16 | 2.5 ± 0.22 | – |
| KSIQDIVGLATLIVNTD [SRP21] | 2.85 ± 0.054 | 3.05 ± 0.05 | 2.93 ± 0.039 | 2.97 ± 0.037 |
| NAYGFIEWCSRCNDNLM [YJL039C/NUP192] | 3 ± 0.079 | 2.54 ± 0.088 | 2.75 ± 0.083 | 2.24 ± 0.078 |
| VIIRRLKTRDWIVVLPW [POP1] | 1.9 ± 0.072 | 1.46 ± 0.13 | 1.98 ± 0.15 | 1.82 ± 0.057 |
| DQYLWYEADQRKLFPNW [PRP8] | – | – | – | 3.13 ± 0.19 |
| KKVNYKVTSYDITGDIR [ISW2] | 2.72 ± 0.058 | 2.51 ± 0.055 | 2.83 ± 0.068 | 2.67 ± 0.051 |
| KKSRLGNSFHLMRELLK [PRP8] | 2.58 ± 0.04 | 2.71 ± 0.046 | 2.39 ± 0.049 | 2.55 ± 0.043 |
| ENTVGLISGAGANPRVL [RPN10] | 1.72 ± 0.052 | 1.46 ± 0.057 | 1.86 ± 0.085 | 1.4 ± 0.044 |
| GASTGNANTGFSFGGTQ [YGL172W/NUP49] | 2.06 ± 0.067 | 2.12 ± 0.054 | 1.58 ± 0.097 | 2.33 ± 0.063 |
| FREAIVATEPLLDILVK [PRP8] | 1.86 ± 0.047 | 2.16 ± 0.043 | 1.96 ± 0.1 | 1.54 ± 0.031 |
| IHEIDERLAKVNEMNDQ [NNF1] | 1.37 ± 0.089 | 2.51 ± 0.14 | 1.63 ± 0.12 | 1.96 ± 0.061 |
| LKLGLVEYLDVNEENDS [RET1] | 3.11 ± 0.075 | 3.08 ± 0.086 | 3.16 ± 0.071 | 3.1 ± 0.075 |
| EYQSLMSLKDKLLIQID [SMC1] | 2.13 ± 0.077 | 2.62 ± 0.082 | 2.41 ± 0.2 | 2.38 ± 0.092 |
| GFFENIETEFLLFTVKL [IRR1] | 3.12 ± 0.077 | 3.2 ± 0.11 | 3.24 ± 0.049 | 3.12 ± 0.07 |
| TVQYVRFFWKRSTNKKS [UBP6] | 1.65 ± 0.054 | 1.35 ± 0.047 | 1.2 ± 0.15 | 1.12 ± 0.04 |
| QTKENKRCVGVILGDAN [RPN8] | 2.89 ± 0.053 | 2.9 ± 0.05 | 2.74 ± 0.055 | 2.73 ± 0.04 |
| EFSPRLHNIWSNGLLSI [YML103C/NUP188] | 1.85 ± 0.061 | 1.91 ± 0.059 | 2.08 ± 0.11 | 1.89 ± 0.046 |
| NLATWYHSAGGRDKHAL [SSN3] | 3.49 ± 0.17 | 3.54 ± 0.15 | 3.16 ± 0.11 | 3.42 ± 0.08 |
| LNVTPSKRPQLGEIPNP [SIR4] | 2.54 ± 0.072 | 2.83 ± 0.066 | 2.66 ± 0.075 | 2.88 ± 0.063 |
| DENAPVATNANATTDQE [PRE10] | 3.09 ± 0.23 | 3.33 ± 0.15 | 3.4 ± 0.17 | – |
